Results published in the DeepSol protein solubility set.

Experiment: soluble on expression in E. coli; label from the status in PepcDB or PDB records

Soluble on expression in E. coli, soluble:
MGSDKIHHHHHHMSLRDKIEELKKIEKEIEQGGGPEKVEKQHRAGKLTAWERLELLLDPGTFVEIDKFVEHRNTYFGLDKVKLPRDGVITGVGEINGRKVAVFSQDFTVMGGSLGEMHAKKIVKLLDLALKMGIPVIGINDSGGARIQEGVDALAGYGEIFLRNTLASGVVPQITVIAGPCAGGAVYSPALTDFIVMVDQTARMFITGPNVIKAVTGEEISQEDLGGAMVHNQKSGNAHFLADNDEKAMSLVRTLLSYLPSNNAEEPPVEDPDTSLETPEDILDILPDNPNKGYDVRDVIKRVVDHGEFFEVQPYFAKNIVIGFARIQGKTVGIVANQPSVLAGVLDIDSSDKAARFIRFLDAFNIPILTFVDTPGYLPGVAQEHGGIIRHGAKLLYAYSEATVPKITVILRKAYGGAYIAMGSKHLGADMVLAWPSAEIAVMGPEGAANIIFKREIEASSNPEETRRKLIEEYKQQFANPYIAASRGYVDMVIDPRETRKYIMRALEVCETKVEYRPKKKHGNIPL

Soluble on expression in E. coli, not soluble:
MGSDKIHHHHHHMSEQKEDLFKPVGEAAAEVEDESIAEQNKANDGVKLTGAQDAMGHPVQEIESLCMNCGKNGTTRLLLTSIPYFREIIIMSFDCPHCGFKNCEIQPASQIQEKGSRYVLKVECREDFNRQVIKSETATCKFVELDIEIPAKRGQLTTVEGLLSEMIDDLSQDQEMRKSIDEALYKKIDDFIQKVKSYINCEPNTIPITFILDDPAGNSWIEYKPGEPQHKWSHTQYVRTDEQNVQVGIITRDQLEQRRQEQLKQLANRERNPSESVKVGSANPQFLSDATDIENFNNEVQTFRASCPSCTQECETHMKPVNIPHFKEVIIMSTVCDHCGYKSNEVKTGGAIPDKGRRITLYCDDAADLSRDILKSETCSMVIPELHLDIQEGTLGGRFTTLEGLLRQVYEELESRIFTQTSDSMDEATKARWVEFFAKLKEAIAGKVKFTVIMEDPLAGSYIQNVYAPDPDPNMTIEDYERTKEQNEDLGLSDIKVE, MGSDKIHHHHHHMSFLIGPFLKSFIDNVIKDTVIPVKGSVVYCGLFGYAEHSGIYIGDNKIVHLDGSGIIEVVSPQQFIERLSGLNPAMSIYVSCNGSSATGTNTIAKRAKKMVGKSRKYHVILDNCHQFTSGCITGNFDNADNFLWMLKSTAGNKLSTNKWRVWERKYSS, MGSDKIHHHHHHMSFRSGVATFAGKSSYWFLHTFLHGGSSLPGKITLKLDPNILRTLGAKYDVIVITGTNGKTLTTALTVSVLHEKYPAILTNPTGSNMEQGIVTTFLNAKNPKTGRPLAVLEVDEANVIKVTHYIEPKAFVFTNIFRDQMDRYGEIYTTYQKILDGVALAPKATIIANGDSPIFNSKELPNPIQYYGFDNEPDTDMKAKPNTDGVLCPVCQHILHYHSLTYSNQGKYFCPNCGFARPELTYRLTALGEQTPTSSHFDVDGHPFTIQVGGTYNIYNALAAYAVGRFMGVAPEQIAHAFTANERVFGRQEVINVGDKRVTIILVKNPVGLDQVLHMIGTDKEQFSFVALLNANYADGIDTSWIWDGDFEQLTALDIPTFITGGERYKDITFRLKVAGVPDDQHIVEPDLEKVVDRITDLPTERVYVLATYTAMLQLRKILATKGYIKEGFGA, MGSDKIHHHHHHMSFSLRNYQVELILDIKKSMLAGHRKIMVQSPPRSGKTVCMAHIAKNATNKQKTVLFFSHRKEINEQVFETFSRAGVDMGLVYIGTVGSIVRKLGKLPVPTLVLVDEAHHIKASQYQQILKYYHQAVQLFFTGTPIRLDGSGFDDMADDLVVGKSILWLQEHGNISEFDYYSINLLDQAKLRKRQGEYTNQSIDDSFDFSNSTAIT, MGSDKIHHHHHHMSGPGTYSPPSSRLQYLGCCAGVAGARLVPGPLGGRFPFSNCVLVEDAGFKVLVDTGCEPWERGLVDVDVVVFTHFHPDHIRGFHRLRAGRVAAPEGEEPYAGRLERLALRFAGERWREWISMARLVMDLEGVPEPGEYFRPGEDLCFRGVCIKTYPARGHLQTHTLLELPGGLVHLVDIDLTGFGPWYGNPEASPELFLLDIEAAAEMEARGYLSAHKDRVYSRGEGVEALARFAGRLVEQAEGVYKALEAAGRPLWPWELTGRGIIYRRYLEGMEAIMSYFEGVMIEKLLGLLGLWGCTRKTPGGYVARDCHLGVIKDRITRNILSLA, MGSDKIHHHHHHMSGQCLYILRNRTNWHVNRLRVFTPSQEGGASVCKRTTRRAADTIPRNIDSCCDRVLRNGILRRSRAAPTNRDTNMLHQNNGFHANALLGSLADDSLRALAPHLELVKIKSAQLLCETDEPMRHLYFPTTAMMSVLYLMEDGAMVEVAAVGNEGVVGVSTLADYGCGGASGRIEVRSGGYAYRVSTQVFRREFDRSLDTFQLMLRYWQAAMTQIARGALCNRHHSVSEQLSRWLLLAHDRVEGDELAVTQQTIANMLGVRREGITEAAGKLQEAGLIRQRRGHITVLDREGLEARACECYGVIRGEFNRLILEARRDAHAPQPIPAEGRPLRVAGYHGAVRSAA, MGSDKIHHHHHHMSHKPSAEDKEKSKLTKEEWRDYTKTVWSIANTSHEDHPAVFPLEIPHRLTKLFSFYGETVLDPFAGTGTTARAAIPLGRRAICVDQNADYTEIIKKDCAKLRNGHGADFEPLVVVNGDSRKMDFVESDSVGLVVTSPPYWNKADYGDSKRNLGTIERYSDFIEGIRPVFEECYRILTPGRKLCVVTANVNQHTDHGLLTFPLATDFAVLLRQIGFVMINEIIWSKDATGGKWGSYGAQRPIFGSYPYPPNFLFKNVHEYILIFAKPPRTKTTGPKVQPYKKLVEGLTGGIMEPDSLPAYAQAFRQQ, MGSDKIHHHHHHMSIFANLFKKQADADAKVVGNVEDFVSLTRVYFQSVIAVNLGITNIRFLPDVANFKRLFKVATQGGKLGLAEKSASRKMLMQDYGISESFFKEIDTSIKKNCRTQNDVQAYLFMYQGFSSDLMMLMGNLMQWKFRMPAIFKKALRSMTEKTVHDVCTKTVWKADDVHKTAAAVRQYKERLGFSEQWMSEYVYNIVLLAKKEPKHKDEEAKAK, MGSDKIHHHHHHMSKIILVVAAHTDDEAMGCGGTIARHIAEGDEVHLLFMTDGVGSREVLAEEVIDRSSAAQQAAKILGVSSFTNLSFPDNRMDSVALLDIVKEVEVKISEIKPEIIYTHHIGDLNIDHQVTHKAVMTACRPQPGFSVKTIYAFEVLSSTEWQTSNSALFIPNVFIDITDYLPVKMDASKAYYNEMREVPHSRSLQHIELLARHRGYTVGVHAAEAFMLVREIK, MGSDKIHHHHHHMSKNVLIVSASPRKGGNSDLLCDQFIQGVLESKNQVEKIFLKDKDINYCTGCGACYEKEANCSQTDDMGEILEKMIGADVIVLATPVYFYTMNAQMKTMIDRTCSRYTEICDKDFYFIVTAADENVADMERTIEGFRGFTSCLNGSKEKGIVYGVGAWNVGDIKGSKAMKQAYEMGKLA, MGSDKIHHHHHHMSKPTQYGIIGCGMMGQEHLRNIALLPDARVAAIFEPNALMQAEAAKFAPDAQFVDSVEALLAIAELDCIMIASPNFRHVEQLETLASQNPLPVLVEKPLFTTLDDLNRIEEFAAHYPAPVWVAMEYRYMPPITAFLNEADTATGGIKMLTVREHRFPFLSKVDDWNRFNAQSGGTFVEKCCHFFDLMRLALKSEPVRIMASGGQDVNHLDERYDGSVPDILDNGYVIVEFESGARAMLELCMFAEGSKYQEDVSAVGPNGKVEAFVPGPGRFWPSHLGDAPVPKLVLSPRNPKGPEERDIPVDPTILDAGDHNGSTFYQHQKFLELVRGERSTPEVSLNDGKMAVLMGLAAQMSIAENRTVEISELL, MGSDKIHHHHHHMSKVSLTIPPDFILGAAASAWQTEGWSGKKAGQDSYLDLWYKQDRQVWHNGYGPAKATDFFNRYREDVALMKLAGLTHYRTSINWSRFMLDYEKGIVDEEYAAYIDNLLDEMHRQGIEPMICLEHYELPACLLEKYQGWSSKQVVEWFVLYADTVFARYAGKVKRWFTFNEPIVVQTRVYLDALRYPYEQNTHTWMQWNHHKNLATAKVVQRFRQKGYDREGGSIGVILNPEVTYPRSRAAHDVKAAHLYDLFYNRVFLDPALKGEYPAELIALLAQHQVKWDYTEEELAIIRDNTVDEVGINLYYPHRVKAPSREWNKETPFHPAYYYEHFELPGRRMNTSRGWEINPKIIYDMAKRIEREYDNVPWFVAENGIGIENEARFKDDAGVIQDDYRIAFIAEHLYWTLKAKEEGANCRGYMLWAFTDNVSPMNAFKNRYGLIEIDLEQDRQRRPKKSAAWFRQLHDTRQLELTLDDEEK, MGSDKIHHHHHHMSLAVVYSRASMGVQAPLVTIEVHLSNGKPAFTLVGLPEKTVTEAQGRVRSALLNAQFKYPAKRITVNLAPADLPKEGGRFDLPIALGILAASEQINAKKLQQFEFVAELALTGELRGVHGVIPAILAGQKSKRQLIVAQQNANEASLVSQHETFFARNLLEVVQFLNDDSSLPSSTTLCMQSAVDFSPQSNKDLTDIIGQQHAKRALMIAAAGQHNLLFLGPPGTGKTMLASRLTGLLPDMTDQEAIETASVTSLVQNELNFQNWKQRPFRAPHHSASSPALVGGGTIPKPGEISLAHNGVLFLDELPEFERRVLDALRQPLESGEIIISRANAKIQFPARFQLVAAMNPSPTGHYTGIHNRTSPQQVLRYLNRLSGPFLDRFDLSIEVPLLPQGALQNTEDRGETTAQVKEKVLRVREIQLARAGKVNAYLTGKEIERDCKLTEQDALFLENTLTRLGLSVRAYHRILKVARTIADLNGDSDIKQNHLAEALSYRAMDRLLRKLSDQ, MGSDKIHHHHHHMSLLINLSFAPLQPTGWLTYSLNLLPHIKYLGVNVLSPREIPEVKVYQSPTNITTECGIKGHFQRLMWVQFKLPSFYKKLKSQLLFSPIPEVPLFSRCRSIVTIHDLIPLRFPQEFSAAQLFYCRNYLPAVIKQSEHIICNSLSTAHDIQNFLGVPEKKITITSLAIDTENFKFLDLPKKNYFLYYGRHNIYKNLNRIIAAFAALPNKDYELWLAGPNDARYTPTLQAQVEELGITHRVKFLDYVSYSELPVIINQAIALVFPSLWEGFGFPVLEALACGTPVITSNLSSLPEVAGDAAILINPYNTAEITDAMQNIANDVKLQSHLSTQGIARANQFSWERTGKATSEVLSRYL, MGSDKIHHHHHHMSLSAQKCGRFFVSIQTEFEQERPTHKGGEIGIDMGVTRFATLSNGEFFEPLNAFKTYKGKLAKLQKQLKNKVKFSKNWQKLKEKIGKLHHKIANCRKDFLHKISTQISKNHAMIYVEDLQVANMSKSAKGTVEAHGKNVKQKSGLNRAILDQSWFEFRRQLDYKTQWLGGFLVAVPPRDTSRTCPCCGHIAKENRETQAHFECVECGYRENADVVGGINVLARGLAIVQA, MGSDKIHHHHHHMSLVVGSARIDENGHISGGKPGDQTGNEVSTQAYYVHSKGWYCLRPKSITVANAIAEAMLQGCRNNNIGYCQGHRSNVIEQLRRVGKLSKISVKTEADCSSLVRACCIQAGFDPGNFNTASEASALKATGQFMEAIAVTSKTELFNGDVLVTKTKGHTVVVVSGNPRHGNTYYPKYEGTSGSIITALAAVGEKDTSKAHRAKIAAANGITNYAYTAAQNTKMVNLLKKGKLIKA, MGSDKIHHHHHHMSNKKLIINADDFGYTPAVTQGIIEAHKRGVVTSTTALPTSPYFLEAMESARISAPTLAIGVHLTLTLNQAKPILPREMVPSLVDEAGYFWHQSIFEEKVNLEEVYNEWDAQIISFMKSGRRPDHIDSHHNVHGKNKKLLGVALALARKYQLPLRNASRSIETKDYLELYQDVRTPDEMLYQFYDKAISTETILQLLDMVVCSEGEVFEINCHPAFIDTILQNQSGYCMPRIREVEILTSQEVKEAIEERGILLANYESLAM
